Our source for the Tm values is FireProtDB (doi:10.1093/hmg/ddv370).

Several values for one entry are separate records, joined by “and”; a condition that tells them apart may be missing. Equal entries are not always repeated.

The conditions of the data set: Homo sapiens; pH 7.5; Thermal; CD; Tris-HCl; KCl; transition: 2; whole UniProt chain shown.

B1: Guanylyl cyclase-activating protein 1 wild type, P43080 (protein)
chain: MGNVMEGKSVEELSSTECHQWYKKFMTECPSGQLTLYEFRQFFGLKNLSPSASQYVEQMFETFDFNKDGYIDFMEYVAALSLVLKGKVEQKLRWYFKLYDVDGNGCIDRDELLTIIQAIRAINPCSDTTMTAEEFTDTVFSKIDVNGDGELSLEEFIEGVQKDQMLLDTLTRSLDLTRIVRRLQNGEQDEEGADEAAEAAG
As a reminder, the Tm is the temperature at which the thermal transition is half complete. As to B1, the melting temperature (Tm) was 50.1 °C and 51.5 °C.
